# From publication PMC11036266
# Target: Human VEGF165 (human) (UniProt P15692)
# Assay: ELISA; human VEGF165 coated on MaxiSorp plates (0.4 µg/mL in PBS, pH 7.4, overnight); aflibercept samples added as 2-fold serial dilutions (1000.0-1.0 ng/mL) in 4% milk powder in PBS-T, RT, 1.5 h; detected with anti-human IgG γ chain-HRPO; EC50 by four-parametric log model
# Chain of Human VEGF165 (human) (P15692 other isoform, or with tags, fused parts or gaps): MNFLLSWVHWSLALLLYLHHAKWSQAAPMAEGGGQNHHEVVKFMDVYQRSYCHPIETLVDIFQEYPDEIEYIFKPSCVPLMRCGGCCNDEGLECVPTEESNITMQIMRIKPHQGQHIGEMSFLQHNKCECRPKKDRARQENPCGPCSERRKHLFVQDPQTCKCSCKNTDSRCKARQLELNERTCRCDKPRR
# Chain of Aflibercept with sialylated N-glycans (AFLI^Sia), isolated from intercellular fluid (Fc fusion) (chain): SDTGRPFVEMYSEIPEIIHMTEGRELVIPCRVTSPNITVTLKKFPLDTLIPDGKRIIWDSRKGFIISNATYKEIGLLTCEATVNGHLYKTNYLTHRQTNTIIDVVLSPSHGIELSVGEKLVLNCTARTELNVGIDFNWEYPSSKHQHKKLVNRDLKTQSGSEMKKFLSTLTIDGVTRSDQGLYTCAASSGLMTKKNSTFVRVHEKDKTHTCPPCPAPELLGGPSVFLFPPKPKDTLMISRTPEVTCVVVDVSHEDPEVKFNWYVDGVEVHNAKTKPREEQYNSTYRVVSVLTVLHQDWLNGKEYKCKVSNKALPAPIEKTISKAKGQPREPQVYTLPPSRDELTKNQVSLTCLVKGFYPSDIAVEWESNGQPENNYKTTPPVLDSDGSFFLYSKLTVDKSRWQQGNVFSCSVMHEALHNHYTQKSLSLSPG
# Chain of Aflibercept with GlcNAc-terminated N-glycans (AFLI^GnGn), isolated from total soluble protein (Fc fusion) (chain): as above
# Chain of Aflibercept with sialylated N-glycans (AFLI^Sia), isolated from total soluble protein (Fc fusion) (chain): as above
row,Substance,EC50 [pM]
1,"Aflibercept with GlcNAc-terminated N-glycans (AFLI^GnGn), isolated from total soluble protein (Fc fusion)",242
2,"Aflibercept with sialylated N-glycans (AFLI^Sia), isolated from intercellular fluid (Fc fusion)",358
3,"Aflibercept with sialylated N-glycans (AFLI^Sia), isolated from total soluble protein (Fc fusion)",310
